The target in assay [1] is T1, Mushroom tyrosinase (mushroom, UniProt C7FF04 1-392). Briefly: cell-based or functional assay.
Assay [2] concerns the target T1, Mushroom tyrosinase. Briefly: cell-based or functional assay. This is another data set of the same source.

T1 sequence (C7FF04 1-392): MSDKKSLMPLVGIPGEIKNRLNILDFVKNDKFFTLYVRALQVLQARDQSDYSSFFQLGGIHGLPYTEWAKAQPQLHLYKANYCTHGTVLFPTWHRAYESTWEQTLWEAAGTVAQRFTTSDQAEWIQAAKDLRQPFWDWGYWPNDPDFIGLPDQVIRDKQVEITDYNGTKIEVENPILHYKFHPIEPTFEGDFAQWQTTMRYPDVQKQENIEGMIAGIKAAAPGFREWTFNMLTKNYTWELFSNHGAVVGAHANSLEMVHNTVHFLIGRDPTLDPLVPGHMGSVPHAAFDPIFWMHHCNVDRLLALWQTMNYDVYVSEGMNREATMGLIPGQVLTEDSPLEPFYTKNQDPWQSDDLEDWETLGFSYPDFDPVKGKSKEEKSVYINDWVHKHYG

As to KFEKKFEK [KFEKKFEK (KF peptide)], the “IC50 (inhibition of mushroom tyrosinase, dopachrome absorbance at 475 nM)” value in assay [1] was 3600 µM. Regarding YRSRKYSSWY [YRSRKYSSWY (YR peptide)], the “IC50 (inhibition of mushroom tyrosinase, dopachrome absorbance at 475 nM)” value in assay [1] amounted to 40 µM. Moreover, in assay [2], the “IC50 (inhibition of mushroom tyrosinase)” value was found to be 40 µM.

For the origin of these results see patent US20090099091A1 (Stanford University, published 2009).
